Experimental data taken from the supplement of paper PMC7877785.
± gives the uncertainty stated by the source.

Assay: self-splicing fitness, log relative to wild type (ln ratio); higher = more splicing; Tetrahymena group I intron in knt gene, E. coli kanamycin selection, DiMSum; sequences stand for … in CUCUCU…GGAGGGAAAAGUUAUCAGGCAUGCACCUGGUAGCUAGUCUUUAAACCAAUAGAUUGCAUCGGUUUAAAAGGCAAGACCGUCAAAUUGCGGGAAAGGGGUCAACAGCCGUUCAGUACCAAGUCUCAGGGGAAACUUUGAGAUGGCCUUGCAAAGGGUAUGGUAAUAAGCUGACGGACAUGGUCCUAACCACGCAGCCAAGUCCUAAGUCAACAGAUCUUCUGUUGAUAUGGAUGCAGUUCACAGACUAAAUGUCGGUCGGGGAAGAUGUAUUCUUCUCAUAAGAUAUAGUCGGACCUCUCCUUAAUGGGAGCUAGCGGAUGAAGUGAUGCAACACUGGAGCCGCUGGGAACUAAUUUGUAUGCGAAAGUAUAUUGAUUAGUUUUGGAGUACUCGUGGUCG
In short: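 Fitness was computed with DiMSum as the error-weighted combination of replicate fold changes, kanamycin versus none, each normalised to wild type. The library randomised all eight intron nucleotides of the P1ex region, with the intron placed in the knt kanamycin-resistance gene on pET-22b(+) in E. coli BL21(DE3). Six replicate transformations were grown overnight at 37°C or 30°C on LB agar with or without 25 μg/mL kanamycin, plus 100 μg/mL carbenicillin, 50 μM IPTG and 0.2% rhamnose. Pooled colonies were amplicon-sequenced on an Illumina HiSeq 2500.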

Sequence	self-splicing fitness (ln) (30 °C)	self-splicing fitness (ln) (37 °C)
CCCGAGCAAUAUUACGUUUA	-3.42 ± 0.17	-2.75 ± 0.16
CCCUAGCAAUAUUACGAACC		-2.28 ± 0.39
CCCUAGCAAUAUUACGAAUA	-1.47 ± 0.3	-1.79 ± 0.39
CCCUAGCAAUAUUACGACCU	-3.5 ± 0.21	-2.68 ± 0.26
CCCUAGCAAUAUUACGAUCU	-3.92 ± 0.28	-2.74 ± 0.24
CCCUAGCAAUAUUACGAUGC	-3.12 ± 0.2	-2.22 ± 0.31
CCCUAGCAAUAUUACGCAUA	-3.33 ± 0.27	-1.99 ± 0.2
CCCUAGCAAUAUUACGCAUC	-3.26 ± 0.25	-2 ± 0.2
CCCUAGCAAUAUUACGCCAA	-3.03 ± 0.25	-2.74 ± 0.41
CCCUAGCAAUAUUACGCCAG	-3.87 ± 0.32	-3.21 ± 0.37
CCCUAGCAAUAUUACGCCUA		-2.48 ± 0.34
CCCUAGCAAUAUUACGCCUC	-3.29 ± 0.27	-3.81 ± 0.31
CCCUAGCAAUAUUACGCCUU	-3.23 ± 0.16	-3.08 ± 0.4
CCCUAGCAAUAUUACGCGGC	-1.47 ± 0.21	-2.36 ± 0.41
CCCUAGCAAUAUUACGCGUG	-5.09 ± 0.41	-1.06 ± 0.13
CCCUAGCAAUAUUACGCUAG	-4.18 ± 0.34	-2.47 ± 0.28
CCCUAGCAAUAUUACGCUGU	-4.59 ± 0.31	-2.63 ± 0.21
CCCUAGCAAUAUUACGCUUG	-3.94 ± 0.42	-2.18 ± 0.28
CCCUAGCAAUAUUACGGAAA	-3.33 ± 0.27	-1.5 ± 0.24

Sequence	self-splicing fitness (ln) (30 °C)	self-splicing fitness (ln) (37 °C)
CCCUAGCAAUAUUACGGACG	-2.32 ± 0.097	-1.15 ± 0.11
CCCUAGCAAUAUUACGGAUG	-3.17 ± 0.15	-1.53 ± 0.11
CCCUAGCAAUAUUACGGCUU	-3.76 ± 0.18	-2.26 ± 0.18
CCCUAGCAAUAUUACGGGAG	-3.67 ± 0.18	-1.79 ± 0.14
CCCUAGCAAUAUUACGGUCA	-2.57 ± 0.18	-2.65 ± 0.28
CCCUAGCAAUAUUACGGUGU	-3.05 ± 0.098	-2.19 ± 0.11
CCCUAGCAAUAUUACGUAAU	-3.5 ± 0.22	-2.83 ± 0.25
CCCUAGCAAUAUUACGUCGC	-3.12 ± 0.21	-2.64 ± 0.25
CCCUAGCAAUAUUACGUCUA	-2.5 ± 0.19	-2.12 ± 0.2
CCCUAGCAAUAUUACGUGAC	-2.85 ± 0.15	-2.29 ± 0.34
CCCUAGCAAUAUUACGUGCG	-2.36 ± 0.13	-2.97 ± 0.17
CCCUAGCAAUAUUACGUUGG	-3.97 ± 0.23	-2.48 ± 0.2
CCCUAGCAAUAUUACGUUUG	-3.93 ± 0.16	-2.79 ± 0.18
CCGAAGCAAUAUUACGACUG	-1.06 ± 0.12	0.835 ± 0.17
CCGAAGCAAUAUUACGAGAG	-3.28 ± 0.22	-1.53 ± 0.19
CCGAAGCAAUAUUACGCAAA		-2.17 ± 0.38
CCGAAGCAAUAUUACGCCCC	-1.26 ± 0.24	-2.89 ± 0.47
CCGAAGCAAUAUUACGCCUC	-1.84 ± 0.28	
CCGAAGCAAUAUUACGGACG	-0.955 ± 0.11	0.515 ± 0.12
